B1: GST-hnRNP H1 (natural protein, human (cDNA from 293 cells), UniProt P31943 1-449, looked up)
chain: MMLGTEGGEGFVVKVRGLPWSCSADEVQRFFSDCKIQNGAQGIRFIYTREGRPSGEAFVELESEDEVKLALKKDRETMGHRYVEVFKSNNVEMDWVLKHTGPNSPDTANDGFVRLRGLPFGCSKEEIVQFFSGLEIVPNGITLPVDFQGRSTGEAFVQFASQEIAEKALKKHKERIGHRYIEIFKSSRAEVRTHYDPPRKLMAMQRPGPYDRPGAGRGYNSIGRGAGFERMRRGAYGGGYGGYDDYNGYNDGYGFGSDRFGRDLNYCFSGMSDHRYGDGGSTFQSTTGHCVHMRGLPYRATENDIYNFFSPLNPVRVHIEIGPDGRVTGEADVEFATHEDAVAAMSKDKANMQHRYVELFLNSTAGASGGAYEHRYVELFLNSTAGASGGAYGSQMMGGMGLSNQSSYGGPASQQLSGGYGGGYGGQSSMSGYDQVLQENSSDFQSNIA
notes: hnRNP H1, cDNA amplified from 293 cell cDNAs, cloned into pGEX-4T-1; source: E. coli BL21 (DE3), purified on glutathione sepharose 4B without elution
B2: purified Flag-tagged AKAP95 (natural protein)
chain: not shown
notes: AKAP95 (AKAP8) cDNA in pFastBac1; also called F-AKAP95; FLAG-AKAP95; source: sf9 cells (baculovirus), purified (anti-FLAG M2 agarose, FLAG peptide elution)

Columns and labels:
[1] = molecular target: B2; experiment: pull-down; GST fusions bound to glutathione resin, purified F-AKAP95 proteins in solution, BC200, 0.1% NP40, immunoblot; settings: both partners purified
[2] = molecular target: T1, purified AKAP95-MBP fusion protein (human, UniProt O43823 1-692); experiment: pull-down; purified MBP or AKAP95-MBP bound to amylose resin, purified F-AKAP95 in solution, BC200, 0.05% NP40, immunoblot; settings: both partners purified
T1 construct: AKAP95 (AKAP8); source: sf9 cells (baculovirus), purified on amylose resin, kept on the resin
T1 sequence (O43823 whole entry, the tested form may be a part): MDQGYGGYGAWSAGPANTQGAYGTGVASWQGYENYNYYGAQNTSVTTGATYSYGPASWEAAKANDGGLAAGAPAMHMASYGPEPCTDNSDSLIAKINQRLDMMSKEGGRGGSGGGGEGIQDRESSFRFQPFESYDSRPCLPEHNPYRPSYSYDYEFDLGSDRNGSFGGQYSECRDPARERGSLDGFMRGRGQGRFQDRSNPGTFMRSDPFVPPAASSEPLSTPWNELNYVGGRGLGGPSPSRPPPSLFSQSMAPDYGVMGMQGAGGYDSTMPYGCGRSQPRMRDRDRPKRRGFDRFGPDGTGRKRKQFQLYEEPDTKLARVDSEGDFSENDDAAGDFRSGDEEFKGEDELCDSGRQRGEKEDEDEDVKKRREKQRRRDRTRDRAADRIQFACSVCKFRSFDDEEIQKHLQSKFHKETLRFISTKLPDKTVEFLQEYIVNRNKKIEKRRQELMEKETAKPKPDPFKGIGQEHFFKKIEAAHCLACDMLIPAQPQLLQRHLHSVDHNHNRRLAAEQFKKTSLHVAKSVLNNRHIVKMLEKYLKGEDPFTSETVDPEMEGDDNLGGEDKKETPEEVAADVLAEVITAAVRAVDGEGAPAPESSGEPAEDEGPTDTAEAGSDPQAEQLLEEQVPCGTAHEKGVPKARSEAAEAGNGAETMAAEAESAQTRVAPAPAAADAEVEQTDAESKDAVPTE

Binder	binding result [1]	binding result [2]
B1	binds	–
B2	–	binds
